± gives the half width of the 95% confidence interval.
How the values were obtained:
[1] = folding stability dG unfold from trypsin proteolysis; higher = more stable
Outline: (§1)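 Only designs with AlphaFold2 dimer inter-PAE above 15 were retained; each was a mini-protein under 80 residues with no cysteine, in a PA-tagged cDNA display construct. After digestion with trypsin and chymotrypsin and sequencing, K50 was inferred by Bayesian fitting of counts, and unfolding free energy was derived per protease or combined against a sequence-predicted unfolded-state K50 and a shared folded-state K50.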

[2] = folding stability dG unfold from chymotrypsin proteolysis; higher = more stable
Outline: as §1

[3] = folding stability dG unfold (combined trypsin and chymotrypsin); higher = more stable
Outline: as §1

Sequence	folding stability dG unfold [1] [kcal/mol]	folding stability dG unfold [2] [kcal/mol]	folding stability dG unfold [3] [kcal/mol]
SAGGSAGMMPTKITVTLTLPPDAPDVEAVAERLAAELGVEVSNAEVLEVRRLPDGSREVVIELTLLSAGGSA [r15_654_JUSTAS]	4.2 ± 0.18	4.18 ± 0.094	4.17 ± 0.1
SAGGSAGMNSEITLTIPVPHPRDEEGRVLPLSPEAIEKELKEKGYNVKIKEVKTSPSTITVTLKIISAGGSA [r15_225_JUSTAS]	0.864 ± 0.053	1 ± 0.082	0.957 ± 0.072
SAGGSAGMPSVPVERTVTVTVVDAEGNLVGTVTLTLTFPGGVSEEEREAAIAAAIEAAVPPAGVVSSAGGSA [r15_310_JUSTAS]	2.56 ± 0.077	2.26 ± 0.059	2.41 ± 0.076
SAGGSAGMSTVTVPLTVELVDPNNGNLKKVIERPLTVPAELSLDEVKEIVREEAKKEGLTIAKILLSAGGSA [r15_195_JUSTAS]	-0.122 ± 0.21	-0.0556 ± 0.092	0.00724 ± 0.13
SAGGSAGMVLVRTPDGEVLLLPFTSPEEAEEALERLTGGRLVSVRLEGTPGDRLLLVAEVERPPGGSAGGSA [r15_447_TrMRF]	1.88 ± 0.045	2.16 ± 0.059	2.06 ± 0.11
SAGGSAGMVVEVREFEIEPDEDKKIKATLERYETPEGPRYVLTIEDPSKNEKKSYPLEPGVDFKKLSAGGSA [r15_75_JUSTAS]	-0.0245 ± 0.26	0.681 ± 0.14	0.488 ± 0.2
SAGGSAGPLPNEKVEVTLTIPLNVLVLDEDGEPLTPEEIARRVRELFSDVSVTLEPGDRLVITLTESAGGSA [r15_645_TrMRF]	2.006 ± 0.015	1.7 ± 0.022	1.85 ± 0.049
SAGGSAGRSRPLRLRFENPENGLRTEVELRVFEIGDYRVILLRERTYHPDTPGLSERDLLILLPPESAGGSA [r15_960_TrMRF]	3.03 ± 0.058	3.508 ± 0.023	3.35 ± 0.1
SAGGSAGSMSEIEGLTVLEEREEPDPATGTTVPTLVVRDPEKGELYVITATTDPATGKPTYSFDLVSAGGSA [r15_170_JUSTAS]	0.871 ± 0.03	0.0106 ± 0.072	0.595 ± 0.047
SAGGSAGSYLVRVRIRRPEDGKELADAVFEVPPDEPVTAEAILKELGIPPEEAKNIEIEVEVFELGSAGGSA [r15_665_TrMRF]	2.26 ± 0.049	3.05 ± 0.031	2.75 ± 0.061
SAGGSAGVSTSKGSSVTTLKIDYKDDVVIKYSYNPSTGTVYTTVIDPETGNPVTVETYSVSPDVPLSAGGSA [r15_425_JUSTAS]	0.649 ± 0.014	1.26 ± 0.084	1.02 ± 0.037
SAGGSAIIVIEIEMGGKPVPIMIPIPPNMPPEDAREEIKELAKQEVRDPDGKPVRVKIEVIPPPPESAGGSA [r15_246_TrROS]	0.163 ± 0.059	0.945 ± 0.031	0.626 ± 0.11
SAGGSAIKVSTSPSDVSVSKVPLPNGETLTIEVSSNGETTVTKTSPTPGTPTTTTVPGASVEELLESAGGSA [r15_406_JUSTAS]	0.331 ± 0.034	0.974 ± 0.02	0.762 ± 0.031
SAGGSAIPGMPIKEIARALQDKFPPGKPPQIKIRNKNGETKTFEPNKTIDDIPMDGVVEIEIEFRPSAGGSA [r15_50_TrROS]	-0.52 ± 0.62	0.0124 ± 0.075	0.0509 ± 0.19
SAGGSAITIEVTMNPNGYMGIRLRDPGNGEEIQIPFPMEPGQNPEDVRNWAREIVDELKKDGWRIYSAGGSA [r15_1022_TrROS]	1.28 ± 0.019	1.76 ± 0.11	1.59 ± 0.038
SAGGSAKDEKVVVIVRREVRLRSRPKVDLGEGNPRVEFESSVEVRVPFLVLPEDDPVARELRELEGSAGGSA [r15_470_TrMRF]	-0.46 ± 0.21	-0.255 ± 0.24	-0.26 ± 0.1
SAGGSAKELIIKIKIKVKVNGKTYEIEIEIKAESIEEAIEAIKKKLEEEGLEIEIVEIEIIPKEELSAGGSA [r15_165_TrROS_Hall]	3 ± 0.086	3.08 ± 0.081	2.99 ± 0.1
SAGGSAKEWVWVISIKYRYPNGEPLAPIPIMIPPDDPEIDIDEIADEIARKHGLDEIEVNIHPIPVSAGGSA [r15_333_TrROS]	1.59 ± 0.052	2.03 ± 0.12	1.9 ± 0.14
SAGGSAKFKLEATPLEDGTLIIPIEIEVTVEKPFPDPNGIPKIKPVKKKFRFLIIKDGDEIKIFLGSAGGSA [r15_883_TrMRF]	1.59 ± 0.089	2.66 ± 0.097	2.31 ± 0.23
SAGGSAKIDIEVDPEDGYIRIKLEVQHNDEPVKATMWYPLPDDGMFIRIRFDMPNGKIEEIETIPPSAGGSA [r2_331_TrROS]	2.69 ± 0.14	4.07 ± 0.12	3.91 ± 0.27
SAGGSAKILEEALEALKKAKPGEEVEIEIEIEVNGKKYRIKVKVTYDEETGKITIEIVEIEELPEESAGGSA [r15_724_TrROS_Hall]	3.23 ± 0.14	4.11 ± 0.14	3.8 ± 0.14

Sequence	folding stability dG unfold [1] [kcal/mol]	folding stability dG unfold [2] [kcal/mol]	folding stability dG unfold [3] [kcal/mol]
SAGGSAKITPGEEINFMFYNPENGQPFMVRIRIEKITVKRKPKDGKRKVEYKIKIEMSPGMKEITISAGGSA [r15_248_TrROS]	2.26 ± 0.15	3.32 ± 0.11	3.23 ± 0.3
SAGGSAKIVIKPDGTIEVEVNGKTFTFPPGAEIEIEEKDGELVLRIRLFNKDGKEVEEFEVTVRIESAGGSA [r15_424_TrROS_Hall]	4.36 ± 0.19	5.51 ± 0.18	5.48 ± 0.18
SAGGSAKKKEKKVEKKVITIEVEPGVKTPEEMLEAIRKLKEEYPDTKIIIKASDEQKEALKRLLKESAGGSA [r15_89_TrROS_Hall]	0.669 ± 0.16	0.879 ± 0.14	0.767 ± 0.3
SAGGSAKKKEVKELTLVIKVKTEEEALKAAEELIRKLLPPDAEIVEVKVEKVKPGEVYITVKVRLKSAGGSA [r15_183_TrROS_Hall]	2.36 ± 0.12	3.99 ± 0.14	3.67 ± 0.18
SAGGSAKKKKGKKKKKIKKIKIKLKLPPGAEIVKIDKEKGVIYIRNKKTNKIYKIDLKTGKIVEIPSAGGSA [r15_452_TrROS_Hall]	1.86 ± 0.17	3.66 ± 0.26	3.27 ± 0.39
SAGGSAKKKKKKKKKKKKKKEKKEVVIVIKAKSKEEAEKAVKKLLEELQKKYNIPLPKNVKVIILPSAGGSA [r15_496_TrROS_Hall]	3.33 ± 0.11	4.34 ± 0.24	3.65 ± 0.37
SAGGSAKKKKKKKVKKVITIPVGGYKIEITYNKKTKKITVKVYKKNKNGKLLSEEEVKKLVKELLSSAGGSA [r15_735_TrROS_Hall]	1.73 ± 0.1	3.4 ± 0.2	2.58 ± 0.53
SAGGSAKKKKTLKITLIIKVKTKEEAEKLAEELAEKLKKLLPEGAKIKVKVTVNKETGYVTVEIELSAGGSA [r15_981_TrROS_Hall]	2.88 ± 0.16	3.64 ± 0.14	3.38 ± 0.15
SAGGSAKKPKPVKYNVVITLKDGKTITLTLPFGSLEKAKEFIEKNFPDAIVTYNPKTGNVTVYLPVSAGGSA [r15_313_TrMRF]	1.87 ± 0.035	3.543 ± 0.03	3.16 ± 0.12
SAGGSAKKTIKITIEVDGKTIEITKITVNENGEVTIEVKITNKNGKETKTIKITMTVEELKALLKSSAGGSA [r15_56_TrROS_Hall]	1.63 ± 0.042	2.55 ± 0.081	2.18 ± 0.095
SAGGSAKKVIVIEVKPGEKITITINGKKVEIVEVKPEGETFLIRNKDTGEIYKITVVDGKVVIEKLSAGGSA [r15_235_TrROS_Hall]	2.43 ± 0.09	4.28 ± 0.076	3.74 ± 0.22
SAGGSAKKVRIEIERNADGTLRITVTLPDGTKKEITVDKPGMTLEEIAKKLGLPEGAEITEIERVPSAGGSA [r15_167_TrROS_Hall]	2.97 ± 0.067	2.71 ± 0.035	2.83 ± 0.075
SAGGSAKKVVLLTIPPSANLPPNSKLVVKFPNGKEKTYKFNDKPVVILLVTDNNGNFSFGVSVEDKSAGGSA [r15_992_TrMRF]	1.87 ± 0.063	3.44 ± 0.17	2.68 ± 0.3
SAGGSAKLIVADVSPLPDGGFAVNVTFVGENGEPVAVKPFYAGSPEELLAALKKFAEENGYEVVVASAGGSA [r15_242_TrMRF]	3.6 ± 0.12	4.57 ± 0.06	4.43 ± 0.11
SAGGSAKLNITKILSVEFSEDGTIRIKVENENGELYELEIKVKVIPPPEKPEIDPKYLTPEDLEKYSAGGSA [r15_41_TrMRF]	1.43 ± 0.029	1.61 ± 0.11	1.6 ± 0.12
SAGGSAKMKKVKITLYAKVKSLEEAKEIAEEIKKSFPSIEKVEVKTEPLEDGSLLVKVDAIFYVPESAGGSA [r15_726_TrMRF]	2.66 ± 0.072	4.17 ± 0.11	3.7 ± 0.16
SAGGSAKNEYITVNITIIVYNPEDGKIEKIINLPIKVPKNLTKEQVINLAKKLLEEKGYEIAEIKGSAGGSA [r15_195_TrMRF]	2.22 ± 0.12	3.24 ± 0.13	2.85 ± 0.2
SAGGSAKPDLVRTGPLLLPTAVVLPSVHFADPDVSVSLFRTPNGPPYLALAFIDPETGEPHIVLFPSAGGSA [r15_84_TrMRF]	0.934 ± 0.036	1.71 ± 0.07	1.44 ± 0.09
SAGGSAKPELVKKLKEALEEEFPDLKVEVVKVDKKNKKIYIKVKSEEEKKRIAELLKKLGIEVEIESAGGSA [r15_196_TrROS_Hall]	3.06 ± 0.25	3.33 ± 0.079	3.18 ± 0.21
SAGGSAKPKIKINIFYPKDGQWYVMIQDPGGEEVMGPWDDIDKIIEAGIPADDVEIEWMPMPPGQFSAGGSA [r15_955_TrROS]	1.03 ± 0.014	1.15 ± 0.048	1.09 ± 0.05
